According to paper PMC4458873:

Molecular target: Purified recombinant Syrian hamster vimentin (Syrian hamster) (UniProt P02544)
Test: cross-linking; vimentin at 3 μM, preincubated without or with 150 mM NaCl, 20 μM DBB for 1 h at 37 °C; 7.5% SDS-PAGE and WB

Purified recombinant Syrian hamster vimentin (from UniProt P02544 1-465) (natural protein)
fold cross-linked dimer, polymerized versus non-polymerized vimentin: 3.9 fold
